Laboratory results published in patent publication US20260137795A1 (IMMUNOME, published 2026).
One block for each binder: values may come before it.

What was measured:
[1] = molecular target: T1, human ROR-1 endogenously expressed on JeKo-1 and MDA-MB-468 cells (human, UniProt Q01973 30-937); assay: flow cytometry on MDA-MB-468 cells, titrated antibody detected with a labeled secondary antibody, % Top MFI (cellular binning with Dy650-UC961)
T1 construct: whole, on cells; also called ROR-1 receptor; extracellular ROR-1 protein on cell lines

[2] = molecular target: T1, human ROR-1 endogenously expressed on …; assay: competition on MDA-MB-468 cells by flow cytometry: ATX-P-875 titrated first, then a saturating dose of labeled 4A5 (4A5-PE) as the competed antibody
[3] = molecular target: T1, human ROR-1 endogenously expressed on …; assay: cell binding saturation assay, flow cytometry on ROR-1 positive cells; one value told for the group
[4] = molecular target: T1, human ROR-1 endogenously expressed on …; assay: flow cytometry on MDA-MB-468 cells, titrated antibody detected with a labeled secondary antibody, % Top MFI (cellular binning with 4A5-PE)
[5] = molecular target: T1, human ROR-1 endogenously expressed on …; assay: cell-based or functional assay
[6] = molecular target: T1, human ROR-1 endogenously expressed on …; assay: flow cytometry, titration on ROR-1 positive JeKo-1 cells, secondary antibody staining, Net MFI
Mouse ROR1 - His = molecular target: T2, Mouse ROR1 - His (mouse, UniProt Q9Z139 30-403, limits assumed); assay: SPR, purified Mouse ROR1-His
T2 construct: Purified His-tagged protein; not shown: His tag
T2 sequence (Q9Z139 30-403 limits assumed): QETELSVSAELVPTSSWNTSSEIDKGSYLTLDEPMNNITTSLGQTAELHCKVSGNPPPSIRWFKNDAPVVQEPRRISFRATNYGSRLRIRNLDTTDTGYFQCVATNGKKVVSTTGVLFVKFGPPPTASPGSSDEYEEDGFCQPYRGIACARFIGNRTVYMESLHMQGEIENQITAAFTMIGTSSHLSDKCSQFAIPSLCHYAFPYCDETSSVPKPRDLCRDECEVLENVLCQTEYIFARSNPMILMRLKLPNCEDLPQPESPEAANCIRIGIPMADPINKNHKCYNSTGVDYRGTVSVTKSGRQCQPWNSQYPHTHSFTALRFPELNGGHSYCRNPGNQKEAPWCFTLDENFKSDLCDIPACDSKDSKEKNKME

Hu/Cy/Rh ROR1 - His [7] = molecular target: T3, Hu/Cy/Rh ROR1 - His (human/cynomolgus/rhesus, UniProt Q01973 30-403, limits assumed); assay: SPR, purified Hu/Cy/Rh ROR1-His
T3 construct: Purified His-tagged protein; also called HUMAN/CYNO/RHESUS ROR-1; not shown: His tag

[8] = molecular target: T1, human ROR-1 endogenously expressed on …; assay: competition on MDA-MB-468 cells by flow cytometry: ATX-P-885 titrated first, then a saturating dose of labeled UC961 (Dy650-UC961) as the competed antibody
Hu/Cy/Rh ROR1 - His [9] = molecular target: T3, Hu/Cy/Rh ROR1 - His; assay: SPR (Carterra), head 'Kinetics (KD)' of the binning table; the sheet prints no unit, the four other KD values of the same head equal the KD (M) of Table 1 on Hu/Cy/Rh ROR1-His

EC50 (read off the curve) [1]: ~0.9 nM
IC50 (read off the curve) [2]: ~0.7 nM
saturating concentration [3]: 74 nM
EC50 (read off the curve) [4]: ~0.6 nM
Cellular Internalization, JeKo-1 (%) [5]: 75%
Cellular Internalization, MDA-MB-468(%) [5]: 89%
B1: ATX-P-875 (antibody, human IgG1, kappa, V domains shown)
VH: not shown
VL: DIQMTQSPSSLSASVGDRVTITCRASQSISSYLNWYQQKPGKAPKLLIYAASSLQSGVPSRFSGSGSGTDFTLTISSLQPEDFATYYCQQYDNLPITFGQGTRLEIKR
notes: human IgG1 heavy chain and kappa light chain

EC50 (read off the curve) [1]: ~3 nM
EC50 (read off the curve) [6]: ~0.3 nM
Kd (Mouse ROR1 - His): 45.3 nM
koff (Mouse ROR1 - His): 0.00132 s⁻¹
kon (Mouse ROR1 - His): 29200 M⁻¹ s⁻¹
Kd (Hu/Cy/Rh ROR1 - His [7]): 10.9 nM
koff (Hu/Cy/Rh ROR1 - His [7]): 0.00295 s⁻¹
kon (Hu/Cy/Rh ROR1 - His [7]): 270000 M⁻¹ s⁻¹
saturating concentration [3]: 74 nM
IC50 (read off the curve) [8]: ~3 nM
EC50 (read off the curve) [4]: ~2 nM
Cellular Internalization, JeKo-1 (%) [5]: 75%
Cellular Internalization, MDA-MB-468(%) [5]: 89%
B2: ATX-P-885 (antibody, human IgG1, kappa, V domains shown)
VH: QVQLQQWGAGLLKPSETLSLTCAVYGGSFSGYYWSWIRQPPGKGLEWIGEINHSGSTNYNPSLKSRVTISVDTSKNQFSLKLSSVTAADTAVYYCAREGVYEDYWGQGTLVTVSS
VL: EIVLTQSPATLSLSPGERATLSCRASQSVSNYLAWYQQKPGQAPRLLIYDAYNRATGIPARFSGSGSGTDFTLTISSLEPEDFAVYYCQQRSNWPLTFGQGTRLEIKR
notes: as for B1

Kd (Hu/Cy/Rh ROR1 - His [9]): 2.81 nM
B3: 4A5 (antibody, V domains shown)
VH: EVKLVESGGGLVKPGGSLKLSCAASGFTFSSYAMSWVRQIPEKRLEWVASISRGGTTYYPDSVKGRFTISRDNVRNILYLQMSSLRSEDTAMYYCGRYDYDGYYAMDYWGQGTSVTVSS
VL: DIKMTQSPSSMYASLGERVTITCKASPDINSYLSWFQQKPGKSPKTLIYRANRLVDGVPSRFSGGGSGQDYSLTINSLEYEDMGIYYCLQYDEFPYTFGGGTKLEMK

Kd (Hu/Cy/Rh ROR1 - His [7]): 4.69 nM
koff (Hu/Cy/Rh ROR1 - His [7]): 0.00591 s⁻¹
kon (Hu/Cy/Rh ROR1 - His [7]): 1.26e+06 M⁻¹ s⁻¹
Cellular Internalization, JeKo-1 (%) [5]: 75%
Cellular Internalization, MDA-MB-468(%) [5]: 80%
B4: UC961 (ATX-P-453) (antibody, V domains shown)
VH: QVQLQESGPGLVKPSQTLSLTCTVSGYAFTAYNIHWVRQAPGQGLEWMGSFDPYDGGSSYNQKFKDRLTISKDTSKNQVVLTMTNMDPVDTATYYCARGWYYFDYWGHGTLVTVSS
VL: DIVMTQTPLSLPVTPGEPASISCRASKSISKYLAWYQQKPGQAPRLLIYSGSTLQSGIPPRFSGSGYGTDFTLTINNIESEDAAYYFCQQHDESPYTFGEGTKVEIK
